Drawing on patent US20250213702A1, this text covers EC50 (ng/mL) of STAT5 phosphorylation assay (CTLL-2 cells) and EC50 (ng/mL), STAT5 phosphorylation assay (CTLL-2 cells) for one substance.

The target in this assay is IL-2Rαβγ on mouse CTLL-2 cells (mouse) (UniProt P01590). Nature of the assay: cell-based or functional assay.
Sequence of UniProt P01590 (P01590 22-268, chain 1 of 3): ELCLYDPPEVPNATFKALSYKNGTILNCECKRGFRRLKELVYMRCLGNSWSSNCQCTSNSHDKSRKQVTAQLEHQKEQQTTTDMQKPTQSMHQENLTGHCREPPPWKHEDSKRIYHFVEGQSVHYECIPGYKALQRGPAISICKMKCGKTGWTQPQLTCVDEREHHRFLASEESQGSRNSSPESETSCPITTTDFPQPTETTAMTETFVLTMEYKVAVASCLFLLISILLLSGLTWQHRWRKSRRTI
Sequence of UniProt P01590 (P16297 27-539, chain 2 of 3, further chain): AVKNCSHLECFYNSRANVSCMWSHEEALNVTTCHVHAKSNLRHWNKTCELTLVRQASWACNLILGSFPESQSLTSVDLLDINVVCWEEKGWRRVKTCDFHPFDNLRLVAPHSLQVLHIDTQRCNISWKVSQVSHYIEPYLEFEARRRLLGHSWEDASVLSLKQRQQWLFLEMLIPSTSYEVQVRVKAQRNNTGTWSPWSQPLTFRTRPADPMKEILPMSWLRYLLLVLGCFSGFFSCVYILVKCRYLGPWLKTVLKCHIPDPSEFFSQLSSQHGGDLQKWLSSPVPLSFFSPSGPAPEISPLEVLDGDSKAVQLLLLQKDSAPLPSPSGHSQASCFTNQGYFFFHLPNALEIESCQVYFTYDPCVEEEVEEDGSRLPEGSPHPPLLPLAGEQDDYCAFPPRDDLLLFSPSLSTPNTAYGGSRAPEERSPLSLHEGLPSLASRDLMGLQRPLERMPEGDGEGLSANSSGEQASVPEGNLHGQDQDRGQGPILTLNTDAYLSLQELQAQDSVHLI
Sequence of UniProt P01590 (P34902 23-369, chain 3 of 3, further chain): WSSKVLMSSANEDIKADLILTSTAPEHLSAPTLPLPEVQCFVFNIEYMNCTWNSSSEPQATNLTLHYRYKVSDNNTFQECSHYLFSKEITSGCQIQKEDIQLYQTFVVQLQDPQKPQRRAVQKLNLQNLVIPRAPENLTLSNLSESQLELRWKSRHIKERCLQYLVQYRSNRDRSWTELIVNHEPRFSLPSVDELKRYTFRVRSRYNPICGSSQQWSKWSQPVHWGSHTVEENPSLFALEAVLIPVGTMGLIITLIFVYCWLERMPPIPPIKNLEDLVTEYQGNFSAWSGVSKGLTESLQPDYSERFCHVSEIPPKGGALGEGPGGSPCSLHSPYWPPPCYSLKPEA

The substance “reference rhIL-2 (purchased from Beijing Solarbio Science & Technology Co., Ltd., catalog number: P00020) (from UniProt P60568 21-153) (ligand)” gave an EC50 (ng/mL) of STAT5 phosphorylation assay (CTLL-2 cells) of 0.38 ng/mL and an EC50 (ng/mL), STAT5 phosphorylation assay (CTLL-2 cells) of 0.18 ng/mL.
